Tested on: cytosolic tail of APP
Assay: Yeast two-hybrid (Y2H) analysis of μ4 with the APP tail
Type: binding
Settings: growth on -His plates, 30°C; for effect of mutation on interaction of the APP tail with μ4 (Y2H): mutations at μ2-binding site; for effect of mutation on binding to the APP YKFFE signal (Y2H): mutations at μ4-binding site
Excerpt: The cloning of the tail of APP (residues 649–695), full-length human μ4, and all the other yeast two-hybrid (Y2H) constructs, and the cloning of the C-terminal domain of μ4 for expression in E. coli was described previously. To generate a construct for mammalian expression, full-length human μ4 was obtained by PCR amplification and cloned into the EcoRI and SalI sites of pEGFP-N1 (BD BiosciencesClontech, Mountain View, CA) including a stop-codon before the GFP coding sequence. The cloning of APP-GFP carrying the double mutation F615P/D664A was described previously. Single amino acid substitutions were introduced using the QuikChange mutagenesis kit (Stratagene, La Jolla, CA). Y2H assays were performed as previously described. A set of pCI-neo (Promega) constructs encoding hemagglutinin (HA)-epitope tagged wild-type or mutants of human μ4 was a generous gift of J. Bonifacino and R. Mattera (Cell Biology and Metabolism Program, NICHD, NIH). The nucleotide sequences of all recombinant constructs were confirmed by dideoxy sequencing.
Figure 1 Yeast two-hybrid analysis of the interaction of μ4 with the cytosolic tail of APP. (A) Superposition of the surface and ribbon representations of human wild-type μ4 C-terminal domain (pdb entry 3L81). The insets show an enlargement of the μ4-binding site and the putative μ2-binding site with residues chosen for the yeast two-hybrid (Y2H) analysis. The APP peptide (TYKFFEQ; stick model) bound to the μ4-binding site is in yellow, and the EGFR peptide (FYRALM; stick model; pdb entry 1BW8) superposed to the putative μ2-binding site is in magenta. (B) Sequence alignment of the C-terminal domain of the μ subunits of known crystal structure depicting critical residues at the corresponding μ2- and μ4-binding sites. Disordered loops are in yellow letters, and arrows and cylinders represent β-strands and α-helices, respectively. M.m., Mus musculus; R.n., Rattus norvegicus; H.s., Homo sapiens. (C) and (D) Yeast were co-transformed with plasmids encoding Gal4bd fused to the cytosolic tail of the amyloid precursor protein (APP) indicated on the left, and Gal4ad fused to wild-type or mutant μ4 constructs indicated on top of each panel. (C) Y2H analysis of μ4 with mutations on the YKFFE binding site (μ4-binding site). (D) Y2H analysis of μ4 with mutations on a putative YXXØ binding site (μ2-binding site). Mouse p53 fused to Gal4bd and SV40 large T antigen (T Ag) fused to Gal4ad were used as controls. Co-transformed cells were spotted onto His-deficient (-His) or His-containing (+His) plates and incubated at 30°C. Growth is indicative of interactions. Some mutations on either of the two sites affect the interaction of μ4 with the cytosolic tail of APP.

Row | Molecule | effect of mutation on interaction of the APP tail with μ4 (Y2H) | effect of mutation on binding to the APP YKFFE signal (Y2H)
1 | W439S: μ4 mutant, μ2-binding site, Y2H construct (protein, left off: Gal4 activation domain, end not stated, kept) MISQFFILSSKGDPLIYKDFRGDSGGRDVAELFYRKLTGLPGDESPVVMHHHGRHFIHIRHSGLYLVVTTSENVSPFSLLELLSRLATLLGDYCGSLGEGTISRNVALVYELLDEVLDYGYVQTTSTEMLRNFIQTEAVVSKPFSLFDLSSVGLFGAETQQSKVAPSSAASRPVLSSRSDQSQKNEVFLDVVERLSVLIASNGSLLKVDVQGEIRLKSFLPSGSEMRIGLTEEFCVGKSELRGYGPGIRVDEVSFHSSVNLDEFESHRILRLQPPQGELTVMRYQLSDDLPSPLPFRLFPSVQWDRGSGRLQVYLKLRCDLLSKSQALNVRLHLPLPRGVVSLSQELSSPEQKAELAEGALRWDLPRVQGGSQLSGLFQMDVPGPPGPPSHGLSTSASPLGLGPASLSFELPRHTCSGLQVRFLRLAFRPCGNANPHKSVRHLSHSDAYVIRI | little or no effect | 
2 | F264A: μ4 mutant, μ4-binding site, Y2H construct (protein, left off: Gal4 activation domain, end not stated, kept) MISQFFILSSKGDPLIYKDFRGDSGGRDVAELFYRKLTGLPGDESPVVMHHHGRHFIHIRHSGLYLVVTTSENVSPFSLLELLSRLATLLGDYCGSLGEGTISRNVALVYELLDEVLDYGYVQTTSTEMLRNFIQTEAVVSKPFSLFDLSSVGLFGAETQQSKVAPSSAASRPVLSSRSDQSQKNEVFLDVVERLSVLIASNGSLLKVDVQGEIRLKSFLPSGSEMRIGLTEEFCVGKSELRGYGPGIRVDEVSFHSSVNLDEAESHRILRLQPPQGELTVMRYQLSDDLPSPLPFRLFPSVQWDRGSGRLQVYLKLRCDLLSKSQALNVRLHLPLPRGVVSLSQELSSPEQKAELAEGALRWDLPRVQGGSQLSGLFQMDVPGPPGPPSHGLSTSASPLGLGPASLSFELPRHTCSGLQVRFLRLAFRPCGNANPHKWVRHLSHSDAYVIRI |  | drastically reduced
3 | L261K: μ4 mutant, μ4-binding site, Y2H construct (protein, left off: Gal4 activation domain, end not stated, kept) MISQFFILSSKGDPLIYKDFRGDSGGRDVAELFYRKLTGLPGDESPVVMHHHGRHFIHIRHSGLYLVVTTSENVSPFSLLELLSRLATLLGDYCGSLGEGTISRNVALVYELLDEVLDYGYVQTTSTEMLRNFIQTEAVVSKPFSLFDLSSVGLFGAETQQSKVAPSSAASRPVLSSRSDQSQKNEVFLDVVERLSVLIASNGSLLKVDVQGEIRLKSFLPSGSEMRIGLTEEFCVGKSELRGYGPGIRVDEVSFHSSVNKDEFESHRILRLQPPQGELTVMRYQLSDDLPSPLPFRLFPSVQWDRGSGRLQVYLKLRCDLLSKSQALNVRLHLPLPRGVVSLSQELSSPEQKAELAEGALRWDLPRVQGGSQLSGLFQMDVPGPPGPPSHGLSTSASPLGLGPASLSFELPRHTCSGLQVRFLRLAFRPCGNANPHKWVRHLSHSDAYVIRI |  | completely abolished
4 | R441A: μ4 mutant, μ2-binding site, Y2H construct (protein, left off: Gal4 activation domain, end not stated, kept) MISQFFILSSKGDPLIYKDFRGDSGGRDVAELFYRKLTGLPGDESPVVMHHHGRHFIHIRHSGLYLVVTTSENVSPFSLLELLSRLATLLGDYCGSLGEGTISRNVALVYELLDEVLDYGYVQTTSTEMLRNFIQTEAVVSKPFSLFDLSSVGLFGAETQQSKVAPSSAASRPVLSSRSDQSQKNEVFLDVVERLSVLIASNGSLLKVDVQGEIRLKSFLPSGSEMRIGLTEEFCVGKSELRGYGPGIRVDEVSFHSSVNLDEFESHRILRLQPPQGELTVMRYQLSDDLPSPLPFRLFPSVQWDRGSGRLQVYLKLRCDLLSKSQALNVRLHLPLPRGVVSLSQELSSPEQKAELAEGALRWDLPRVQGGSQLSGLFQMDVPGPPGPPSHGLSTSASPLGLGPASLSFELPRHTCSGLQVRFLRLAFRPCGNANPHKWVAHLSHSDAYVIRI | little or no effect | 
5 | E265R: μ4 mutant, μ4-binding site, Y2H construct (protein, left off: Gal4 activation domain, end not stated, kept) MISQFFILSSKGDPLIYKDFRGDSGGRDVAELFYRKLTGLPGDESPVVMHHHGRHFIHIRHSGLYLVVTTSENVSPFSLLELLSRLATLLGDYCGSLGEGTISRNVALVYELLDEVLDYGYVQTTSTEMLRNFIQTEAVVSKPFSLFDLSSVGLFGAETQQSKVAPSSAASRPVLSSRSDQSQKNEVFLDVVERLSVLIASNGSLLKVDVQGEIRLKSFLPSGSEMRIGLTEEFCVGKSELRGYGPGIRVDEVSFHSSVNLDEFRSHRILRLQPPQGELTVMRYQLSDDLPSPLPFRLFPSVQWDRGSGRLQVYLKLRCDLLSKSQALNVRLHLPLPRGVVSLSQELSSPEQKAELAEGALRWDLPRVQGGSQLSGLFQMDVPGPPGPPSHGLSTSASPLGLGPASLSFELPRHTCSGLQVRFLRLAFRPCGNANPHKWVRHLSHSDAYVIRI |  | completely abolished

Source: paper PMC3912200, “Structural and Functional Characterization of Cargo-Binding Sites on the μ4-Subunit of Adaptor Protein Complex 4” (PLoS ONE, 2014)
